B1: TPR t1 (parent)
chain: GACCAAUCUGCCCUCAGAGCUCGAGAACAUCUUCGGAUGCAGAGGAGGCAGGCUUCGGUGGCGCGAUAGCGCCAACGUCCUCAACCUCCAAUGCAUCCCACCACAUGAUGAUGCCUGAAGAGCCUUGGUUUUUUG

Variants of: B1
Assay: polymerase ribozyme fitness, log enrichment relative to wild type (log ratio); higher = more active; in vitro selection for triplet polymerase activity
Summary of the method: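 Both subunits of a heterodimeric triplet polymerase ribozyme were given their own mutant library, built by PCR and transcribed. Each library was annealed with a biotinylated primer, the partner subunit and triplets, incubated frozen at −7 °C, and its extended constructs gel-excised, captured on streptavidin beads and amplified by RT-PCR, all in one round done in triplicate. Fitness is the logarithm of genotype enrichment relative to wild-type enrichment, with replicates averaged by inverse-variance weighting. That logarithm is base 2, and Illumina-sequenced genotypes needed ≥10 input reads and ≥1 read per output.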

Variant | polymerase ribozyme fitness (log ratio)
G60C C114A | -1.83
G61C C97U | -2.51
G60A G117C A121U | -2.7
C62U C76G A83U C89G U116C U130G | -2.99
G61C U78G U112A G128A | -6.61
G60A G122A | -0.483
G60U U87A U126C | -0.499
C62A G110A | -2.12
G61U G128A | -1.7
G61U A95U | -0.221
C62A G77C U87A | -1.71
G61U G113C U130G G135U | -3.21
C62A G117C | -4.72
G61A C101U | -1.21
C62A U81G | -5.64
G60U A105C | -1.6
G61A A84U C114U | -2.12
G61A A84U C94A U131C | -0.628
G61U C115G G117A G122U U126C | -4.57
G60A U78A G107C A111U | -5.18
G60A G93A C99U | -5.15

Variant | polymerase ribozyme fitness (log ratio)
G61U G77C A119U | -1.73
G61A G113U | -2.69
G61A U78C C85U U96C C101U U109G | -5.66
G61C U125G | -1.95
G61U G93U U130A | -1.63
G61A C79A C104A A111U | -5.96
G60A U133A | -0.249
C62A A105G | -4.17
G61U G117A | -0.499
G60U C82U | -0.383
G60U C79U | 0.386
C62A U78A A91U A111C | -4.78
C62U C80U C97U | -0.921
C62U U78A C89U G117A | -2.6
G61A U130C | 0.204
C62U C97A | -5.14
G61A G128U | -2.15
G61C A74C C85U | -5.35
G60C C72U | -0.882
G61U C98A | -3.78
G61U C98U | -1.55

Variant | polymerase ribozyme fitness (log ratio)
G61A U112A C124U | 1.83
G60U C80A U106A | -3.14
G61C U112A | -0.897
C62A A103U | -5.71
G60A U92A C104U U133A | -2.74
G61C C114U | -4
G61A C73G | -1.15
G61A C62U | -1.86
C62G G93C | -3.7
G61C C73U C85U G117A U129C | -5.49
C62A C101A G113A | -2.77
C62U G107C | -5.77
C62A G110C G127U | -5.37
G60U U78A U106A | 0.283
C62U G63U A103C C114A | -4.66
G60U A90G C123A U125A G135A | 1.61
C62U C114G | -3.11
C62U C114U | -1.82
G60U U125G | -0.584
G61A C86U | -0.712
G61C G113U | -4.1

Variant | polymerase ribozyme fitness (log ratio)
G61A C82U C115A | 0.0919
G61C G63C | -3.6
C62A C82U A121U U125A | 1.19
G61U A119G | 1.3
C62U C70G C72U G120U | -2.44
G61C C82U | -1.83
C62G A119U G128C | -4.08
C62U A111C | 0.533
G60U A121U | 1.63
G61A U116G G128C | -4.66
G61U A100C | -0.248
C62A U87G U106G | -2.77
G61A U133A | -0.418
C62U G110U | -1.14
G61A C94U U112A | 1.31
G60U G93C C104A G113C | -4.47
G61U C82A G107A | -5.28
C62G G93C G120A U125G U131G | -3.65
G61A A90G G128U | -1.55
G61U A83G U112C | 1.59

— the RNAGym collection of RNA variant scans (doi:10.1073/pnas.2313332121)
